Legend:
[1] = biological target: T1, Fcγ receptor I (CD64) on U-937 cells (UniProt P12314 16-374, limits assumed); assay: binding to U-937 cells
T1 construct: whole, on cells; also called FcγRI

[2] = biological target: T2, human membrane c-Kit on cells (human, UniProt P10721 26-976); assay: cell-based or functional assay
[3] = biological target: T2, human membrane c-Kit on cells; assay: cell-based or functional assay; remark: listed apart in the source
[4] = biological target: T3, recombinant c-Kit receptor-Fc (UniProt P10721 26-520, limits assumed); assay: KinExA equilibrium binding; KinExA equilibrium binding; recombinant c-Kit receptor-Fc
T3 construct: not shown: Fc part

[5] = biological target: c-Kit (form in the assay not stated) (UniProt P10721 26-520, limits assumed); assay: Biacore assay, blocking of SCF binding to c-Kit; Biacore; blocking of SCF binding; c-Kit form not stated
Sequence of c-Kit (form in the assay not stated) (P10721 26-520 limits assumed): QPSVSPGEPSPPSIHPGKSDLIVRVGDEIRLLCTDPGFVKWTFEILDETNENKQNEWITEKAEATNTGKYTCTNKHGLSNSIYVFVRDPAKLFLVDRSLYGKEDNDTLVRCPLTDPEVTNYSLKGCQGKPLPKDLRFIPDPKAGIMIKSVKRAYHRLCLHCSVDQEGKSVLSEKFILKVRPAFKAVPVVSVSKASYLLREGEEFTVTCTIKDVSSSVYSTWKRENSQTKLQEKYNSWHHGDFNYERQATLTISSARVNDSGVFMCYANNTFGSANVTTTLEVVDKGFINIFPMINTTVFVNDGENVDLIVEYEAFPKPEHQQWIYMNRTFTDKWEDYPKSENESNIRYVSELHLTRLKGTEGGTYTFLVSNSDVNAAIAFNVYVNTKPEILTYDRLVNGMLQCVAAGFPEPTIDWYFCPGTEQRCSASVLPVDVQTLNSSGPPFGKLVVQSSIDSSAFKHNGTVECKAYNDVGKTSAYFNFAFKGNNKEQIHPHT

T2 sequence (P10721 26-976): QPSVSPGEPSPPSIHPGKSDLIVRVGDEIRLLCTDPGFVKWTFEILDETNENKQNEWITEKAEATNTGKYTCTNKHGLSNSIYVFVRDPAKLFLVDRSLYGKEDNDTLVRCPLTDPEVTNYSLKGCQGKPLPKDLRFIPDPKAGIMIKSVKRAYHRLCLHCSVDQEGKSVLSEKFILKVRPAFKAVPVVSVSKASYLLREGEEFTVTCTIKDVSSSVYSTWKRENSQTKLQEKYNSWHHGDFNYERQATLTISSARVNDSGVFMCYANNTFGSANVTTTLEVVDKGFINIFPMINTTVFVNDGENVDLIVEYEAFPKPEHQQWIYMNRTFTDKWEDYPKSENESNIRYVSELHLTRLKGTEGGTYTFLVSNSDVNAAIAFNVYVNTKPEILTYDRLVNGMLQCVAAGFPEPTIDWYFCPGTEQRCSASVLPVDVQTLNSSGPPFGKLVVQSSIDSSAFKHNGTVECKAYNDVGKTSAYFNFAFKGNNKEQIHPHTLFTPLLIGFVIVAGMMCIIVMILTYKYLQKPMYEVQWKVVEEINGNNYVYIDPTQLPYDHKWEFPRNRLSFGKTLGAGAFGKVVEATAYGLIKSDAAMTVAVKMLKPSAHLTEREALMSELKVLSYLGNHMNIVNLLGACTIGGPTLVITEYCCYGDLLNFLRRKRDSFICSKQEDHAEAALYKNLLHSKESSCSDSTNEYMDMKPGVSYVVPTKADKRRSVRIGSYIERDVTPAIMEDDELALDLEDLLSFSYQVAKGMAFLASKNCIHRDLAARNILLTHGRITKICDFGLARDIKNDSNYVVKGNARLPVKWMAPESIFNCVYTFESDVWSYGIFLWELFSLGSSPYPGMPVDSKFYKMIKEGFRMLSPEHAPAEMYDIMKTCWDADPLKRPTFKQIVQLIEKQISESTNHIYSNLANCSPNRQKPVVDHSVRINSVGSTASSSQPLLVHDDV
T1 sequence (P12314 16-374 limits assumed): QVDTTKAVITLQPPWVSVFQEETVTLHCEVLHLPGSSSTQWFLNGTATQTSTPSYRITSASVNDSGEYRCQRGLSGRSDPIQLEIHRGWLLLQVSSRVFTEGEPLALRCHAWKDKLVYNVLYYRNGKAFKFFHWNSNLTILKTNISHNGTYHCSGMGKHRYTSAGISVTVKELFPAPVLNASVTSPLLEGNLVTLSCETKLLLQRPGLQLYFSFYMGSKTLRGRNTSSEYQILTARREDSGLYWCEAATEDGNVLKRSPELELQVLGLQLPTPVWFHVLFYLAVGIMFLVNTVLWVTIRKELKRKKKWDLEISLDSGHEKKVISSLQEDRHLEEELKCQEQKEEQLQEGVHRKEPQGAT
T3 sequence (P10721 26-520 limits assumed): as the sequence (P10721 26-520 limits assumed) above

B1: Humanized SR-1 aglycosylated IgG1 (hSR-1 aIgG1) (antibody)
heavy: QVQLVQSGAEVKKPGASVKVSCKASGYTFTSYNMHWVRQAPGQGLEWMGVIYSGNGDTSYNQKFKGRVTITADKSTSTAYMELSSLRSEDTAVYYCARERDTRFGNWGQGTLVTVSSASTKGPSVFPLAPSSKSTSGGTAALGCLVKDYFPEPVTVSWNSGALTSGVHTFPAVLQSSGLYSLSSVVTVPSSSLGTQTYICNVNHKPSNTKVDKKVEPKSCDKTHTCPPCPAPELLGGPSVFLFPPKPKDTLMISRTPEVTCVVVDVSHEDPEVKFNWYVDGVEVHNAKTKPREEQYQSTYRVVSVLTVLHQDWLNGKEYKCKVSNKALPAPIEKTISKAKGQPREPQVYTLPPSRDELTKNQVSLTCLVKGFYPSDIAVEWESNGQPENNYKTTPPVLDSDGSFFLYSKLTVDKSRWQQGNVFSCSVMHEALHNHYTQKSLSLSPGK
light: DIVMTQSPDSLAVSLGERATINCRASESVDIYGNSFMHWYQQKPGQPPKLLIYLASNLESGVPDRFSGSGSGTDFTLTISSLQAEDVAVYYCQQNNEDPYTFGGGTKVEIKRTVAAPSVFIFPPSDEQLKSGTASVVCLLNNFYPREAKVQWKVDNALQSGNSQESVTEQDSKDSTYSLSSTLTLSKADYEKHKVYACEVTHQGLSSPVTKSFNRGEC
notes: also called Humanized SR-1 aIgG1; Humanized SR-1 aglyco-IgG1
binding result [1]: no binding | IC50, SCF-dependent survival/proliferation of UT-7 cells [2]: 0.035 nM | UT-7 IC50 [3]: 4.5 ng/mL | Kd [4]: 0.001 nM | Ki [5]: 0.07 nM

B2: murine anti-human c-Kit monoclonal antibody SR-1 (antibody, mouse IgG2a, kappa, V domains shown)
VH: QVQLQQPGAELVKPGASVKMSCKASGYTFTSYNMHWVKQTPGQGLEWIGVIYSGNGDTSYNQKFKGKATLTADKSSSTAYMQINSLTSEDSAVYYCARERDTRFGNWGQGTLVTVSA
VL: NIVLTQSPASLAVSLGLRATISCRASESVDIYGNSFMHWYQQKPGQPPKLLIYLASNLESGVPARFSGSGSRTDFTLTIDPVEADDAATYYCQQNNEDPYTFGGGTKLEIKR
UT-7 IC50 [3]: 3.6 ng/mL
